Test results as given in patent publication US20100189695.

Tests used:
[1] = biological target: Tau protein (in bone marrow derived macrophages), P10637
[2] = biological target: Rac1 (murine BMDM cells), P63001
[3] = biological target: T1, NFATc4
T1 sequence (Q14934 1-902, species assumed, looked up): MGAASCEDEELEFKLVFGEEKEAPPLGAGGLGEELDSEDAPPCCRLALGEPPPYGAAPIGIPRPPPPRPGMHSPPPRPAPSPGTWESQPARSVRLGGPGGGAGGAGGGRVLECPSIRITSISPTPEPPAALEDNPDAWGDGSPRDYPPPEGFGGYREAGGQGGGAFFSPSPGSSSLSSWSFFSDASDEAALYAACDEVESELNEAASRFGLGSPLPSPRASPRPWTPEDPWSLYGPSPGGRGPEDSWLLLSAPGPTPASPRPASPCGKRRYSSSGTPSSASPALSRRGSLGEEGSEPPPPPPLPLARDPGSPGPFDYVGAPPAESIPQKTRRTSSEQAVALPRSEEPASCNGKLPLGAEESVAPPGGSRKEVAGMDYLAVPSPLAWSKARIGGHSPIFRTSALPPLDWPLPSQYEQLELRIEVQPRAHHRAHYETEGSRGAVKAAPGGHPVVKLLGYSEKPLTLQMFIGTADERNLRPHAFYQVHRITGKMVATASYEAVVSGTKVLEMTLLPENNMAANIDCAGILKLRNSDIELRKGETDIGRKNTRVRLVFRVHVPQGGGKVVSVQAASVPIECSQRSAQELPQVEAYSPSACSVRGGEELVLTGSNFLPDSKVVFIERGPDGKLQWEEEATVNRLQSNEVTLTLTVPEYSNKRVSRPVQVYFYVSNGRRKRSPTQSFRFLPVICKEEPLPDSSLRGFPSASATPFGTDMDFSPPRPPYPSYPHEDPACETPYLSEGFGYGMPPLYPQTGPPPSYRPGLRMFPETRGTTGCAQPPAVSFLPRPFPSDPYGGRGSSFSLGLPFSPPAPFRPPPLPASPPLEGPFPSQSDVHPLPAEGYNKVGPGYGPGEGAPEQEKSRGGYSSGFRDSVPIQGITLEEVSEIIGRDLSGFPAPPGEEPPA

Chain of Tau protein (in bone marrow derived macrophages), P10637 (P10637 whole entry, looked up): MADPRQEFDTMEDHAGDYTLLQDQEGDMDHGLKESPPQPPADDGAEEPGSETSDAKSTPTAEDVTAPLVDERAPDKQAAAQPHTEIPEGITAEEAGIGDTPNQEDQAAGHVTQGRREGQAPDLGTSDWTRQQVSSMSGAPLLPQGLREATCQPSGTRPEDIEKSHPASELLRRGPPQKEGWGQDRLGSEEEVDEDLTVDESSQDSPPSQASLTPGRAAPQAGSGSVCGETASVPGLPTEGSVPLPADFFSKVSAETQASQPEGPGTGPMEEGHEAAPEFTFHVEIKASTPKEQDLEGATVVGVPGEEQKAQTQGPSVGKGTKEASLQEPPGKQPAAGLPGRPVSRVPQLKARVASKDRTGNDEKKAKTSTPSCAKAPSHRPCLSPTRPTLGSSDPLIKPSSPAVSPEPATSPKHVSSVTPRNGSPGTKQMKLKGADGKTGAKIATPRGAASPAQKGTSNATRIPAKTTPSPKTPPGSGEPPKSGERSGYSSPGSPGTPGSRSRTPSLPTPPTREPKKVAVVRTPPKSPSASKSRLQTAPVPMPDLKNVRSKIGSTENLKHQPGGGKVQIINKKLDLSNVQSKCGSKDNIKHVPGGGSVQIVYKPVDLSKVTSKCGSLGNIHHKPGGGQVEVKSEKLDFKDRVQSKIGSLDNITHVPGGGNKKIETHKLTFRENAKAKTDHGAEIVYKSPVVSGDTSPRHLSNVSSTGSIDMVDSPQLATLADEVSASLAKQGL

B1: murine IRAK-1 (endogenous, wild type BMDM cells) (protein)
chain: MAGGPGPGEPVVPGAQHFLYEVPPWVMCRFYKVMDALEPADWCQFAALIVRDQTELRLCERSEQRTASVLWPWINRNARVADLVHILTHLQLLRARDIITAWHPPAPVVPPSTAAPRPSSISAGSEAGDWSPRKLQSSASTFLSPAFPGSQTHSESELLQVPLPVSLGPPLPSSAPSSTKSSPESPVSGLQRAHPSPFCWPFCEISQGTCNFSEELRIGEGGFGCVYRAVMRNTTYAVKRLKEEADLEWTMVKQSFLTEVEQLSRFRHPNIVDFAGYCAESGLYCLVYGFLPNGSLEDQLHLQTQACSPLSWPQRLDILLGTARAIQFLHQDSPSLIHGDIKSSNVLLDERLMPKLGDFGLARFSRFAGAKASQSSTVARTSTVRGTLAYLPEEYIKTGRLAVDTDTFSFGVVILETLAGQRAVRTQGAKTKYLKDLIEDEAEEAGVTLKSTQPTLWVGVATDAWAAPIAAQIYKKHLDSRPGPCPPQLGLALAQLACCCMHRRAKKRPPMTQVYKRLEGLQAGPPWELEVAGHGSPSPQENSYMSTTGSAQSGDEPWQPLVVTTRAPAQAAQQLQRSPNQPVESDESVPGLSATLHSWHLTPGSHPSPASFREASCTQGGTTRESSVRSSPGFQPTTMEGSPTGSSSLLSSEPPQIIINPARQKMVQKLALYEEGVLDSLQLLSSGFFPGLDLEPEKSQGPEESDEFQS
phosphorylated Tau (PHF-Tau) by Western blot after BLP (Pam3CSK4) treatment [1]: stimulation of wild type cells led to increased Tau phosphorylation. In contrast, Tau phosphorylation is ablated in IRAK-1 deficient cells | Rac1 activity (PBD pull down assay) after LPS treatment for 5 min [2]: relative Rac1 activity is significantly higher in LPS-induced wild type macrophages and not in IRAK-1 deficient macrophages | phosphorylated NFATc4 (p-NFATc4) by Western blot [3]: p-NFATc4 was found in the wild type cells (Panel B, lanes 1-3) whereas significantly less was found in the IRAK-1 deficient cells
